Data taken from patent publication US9322000B2, “Methanol dehydrogenase enzymes from Bacillus” (Sinvent AS, priority 2012, dated 2016).

B1: Mdh3-MGA3: NAD-dependent methanol dehydrogenase encoded by chromosomal gene mdh3 of B. methanolicus MGA3, SEQ ID NO. 4 (protein)
chain: MKNTQSAFYMPSVNLFGAGSVNEVGTRLAGLGVKKALLVTDAGLHSLGLSEKIAGIIREAGVEVAIFPKAEPNPTDKNVAEGLEAYNAENCDSIVTLGGGSSHDAGKAIALVAANGGTIHDYEGVDVSKKPMVPLIAINTTAGTGSELTKFTIITDTERKVKMAIVDKHVTPTLSINDPELMVGMPPSLTAATGLDALTHAIEAYVSTGATPITDALAIQAIKIISKYLPRAVANGKDIEAREQMAFAQSLAGMAFNNAGLGYVHAIAHQLGGFYNFPHGVCNAILLPHVCRFNLISKVERYAEIAAFLGENVDGLSTYEAAEKAIKAIERMARDLNIPKGFKELGAKEEDIETLAKNAMNDACALTNPRKPKLEEVIQIIKNAM
modifications: Bacillus methanolicus MGA3
B2: Mdh2-MGA3: NAD-dependent methanol dehydrogenase encoded by chromosomal gene mdh2 of B. methanolicus MGA3, SEQ ID NO. 2 (protein)
chain: MTNTQSAFFMPSVNLFGAGSVNEVGTRLADLGVKKALLVTDAGLHGLGLSEKISSIIRAAGVEVSIFPKAEPNPTDKNVAEGLEAYNAENCDSIVTLGGGSSHDAGKAIALVAANGGKIHDYEGVDVSKEPMVPLIAINTTAGTGSELTKFTIITDTERKVKMAIVDKHVTPTLSINDPELMVGMPPSLTAATGLDALTHAIEAYVSTGATPITDALAIQAIKIISKYLPRAVANGKDIEAREQMAFAQSLAGMAFNNAGLGYVHAIAHQLGGFYNFPHGVCNAVLLPYVCRFNLISKVERYAEIAAFLGENVDGLSTYDAAEKAIKAIERMAKDLNIPKGFKELGAKEEDIETLAKNAMKDACALTNPRKPKLEEVIQIIKNAM
modifications: Bacillus methanolicus MGA3

Columns and labels:
[1] = Substrate specificity of purified MDH proteins on alternative alcohols; format: biochemical; conditions: all alternative alcohol substrates
Protocol: FIG. 3. Catalytic activities of purified Mdh (black), Mdh2 (dark grey) and Mdh3 (light grey) on various alcohols (200 mM) tested in vitro. (A) Substrate specificity was analysed for MDHs from B. methanolicus MGA3 in vitro. Alcohol substrates were used at concentrations of 500 mM except for pentanol (300 mM) and hexanol (50 mM). The data were calculated from the mean value from two experiments which were done in triplicate. (B) Substrate specificity for MDHs from B. methanolicus PB1 was analysed in vitro. Alcohol substrates were used at concentrations of 500 mM except for pentanol (300 mM) and hexanol (50 mM). The data were calculated from the mean value from two experiments which were done in triplicate.
Alcohol dehydrogenase activities were measured spectrophotometrically essentially as described previously (Hektor, Kloosterman et al. (2002) Chem 277(49): 46966-46973) and the reaction mixture contained: 100 mM Glycine-KOH pH 9.5 (unless otherwise stated), 5 mM MgSO4, 0.5 mM NAD^+ and 500 mM alcohol (methanol, ethanol, propanol, 1,3-propanediol, or butanol). NAD^+ was substituted with equal concentrations of NADP^+, FMN^+, and FAD^+, when indicated. […] The reactions were started by addition of 5-40 μg of the purified MDH proteins, and the production of NADH was monitored at 340 nm for 4 minutes. […]

[2] = test system: 13C-methanol; experiment: 13C-methanol labeling of genetically engineered B. subtilis; format: cell-based; conditions: B. subtilis 168 expressing Act, Mdh3, HxlA
Protocol: For the labeling experiments we used the B. subtilis strain that expresses Act, Mdh3, HxlA and HxlB and the strain that expresses Act, Mdh3, HxlA, HxlB, GlpX, Fba, Tkt, Pfk and Rpe. As a negative control the B. subtilis strain with the empty pHCMC04 plasmid was used. All B. subtilis strains were grown on M9 medium containing (per liter) 3.48 g Na2HPO4.12H20, 0.60 g of KH2PO4, 0.51 g of NaCl, 2.04 g of NH4Cl, 0.10 g of MgSO4, 4.38 mg of CaCl2, 15 mg of Na2EDTA.2H2O, 4.5 mg of ZnSO4.7H2O, 0.3 mg of CoCl2.6 H2O, 1 mg of MnCl2.4H2O, 1 mg of H3BO3, 0.4 mg of Na2MoO4.2H2O, 3 mg of FeSO4.7H2O and 0.3 mg of CuSO4.5H2O, 10 g of xylose (i.e. inducer) and 5 mg of chloramphenicol. All the cultivations were performed at 37° C. Cells strains were plated from a glycerol stock on a LB agar plate (10 g/l of tryptone, 5 g/l of yeast extract, 10 g/l of NaCl, and 16 g/l agar) containing 5 μg/ml of chloramphenicol and grown afterwards on a LB+chloramphenicol liquid medium for approximately 5 hours. The liquid pre-cultures containing M9 medium were inoculated from the LB cultures at a final OD600 between 1.4 and 1.8. […] The labeling patterns of intracellular metabolites were measured using a Dionex ICS 2000 system (Dionex, Sunnyvale, USA) coupled to a triple quadrupole QTrap 4000 mass spectrometer (Applied Biosystems, Foster City, USA).

[3] = test system: 13C-methanol; experiment: 13C-methanol labeling of genetically engineered C. glutamicum; format: cell-based; conditions: C. glutamicum delta ald expressing Mdh2, Hps and Phi; 40 mM 13C-methanol; 30 and 90 minutes
Protocol: For the labeling experiments we used the C. glutamicum delta ald strain that expresses Mdh2-MGA3 (pVWEx1-Mdh2), Hps and Phi (pEKEX3−Hps+Phi). As a negative control the C. glutamicum delta ald strain with the empty pEKEX3 plasmid was used. All C. glutamicum strains were grown on M9 medium containing (per liter) 3.48 g Na2HPO4.12 H2O, 0.60 g of KH2PO4, 0.51 g of NaCl, 2.04 g of NH4Cl, 0.10 g of MgSO4, 4.38 mg of CaCl2, 15 mg of Na2EDTA.2H2O, 4.5 mg of ZnSO4.7 H2O, 0.3 mg of CoCl2.6 H2O, 1 mg of MnCl2.4H2O, 1 mg of H3BO3, 0.4 mg of Na2MoO4.2H2O, 3 mg of FeSO4.7H2O and 0.3 mg of CuSO4.5H2O. For all the cultivation (M9 or LB), 1 mM of IPTG was used as inducer and 100 μg/ml of spectinomycin and 25 μg/ml of kanamycin were added in the medium as resistant markers. All the cultivations were performed at 30° C. Cell strains were plated from a glycerol stock on a LB agar plate (10 g/l of tryptone, 5 g/l of yeast extract, 10 g/l of NaCl, and 16 g/l agar) and grown afterwards on a LB liquid medium for 6 hours. The liquid pre-cultures containing M9 medium plus 3 g/l ribose were inoculated from the LB cultures at a final OD600 of 0.6 for 12 hours. […] The labeling patterns of intracellular metabolites were measured using a Dionex ICS 2000 system (Dionex, Sunnyvale, USA) coupled to a triple quadrupole QTrap 4000 mass spectrometer (Applied Biosystems, Foster City, USA).

Molecule	catalytic activity on alternative alcohols compared with the remaining MDHs [1]	13C labeling of metabolites (mass isotopomer fraction M1) ([2]; HxlB plus overexpressed PPP genes)	13C labeling of metabolites (mass isotopomer fraction M1) ([2]; HxlB, no PPP genes overexpressed)	13C label incorporation into metabolites (mass isotopomer fraction M1) [3]
B1	significantly higher catalytic activity than the remaining enzymes	significant labeling incorporation was detected	no labeling was found	
B2				Significant label incorporation into metabolites was observed
